Data reported in the nanobody polyreactivity screen of Harvey et al. (2022).

Experiment: yeast display, Sf9 membrane polyspecificity reagent, FACS + sequencing; frameworks hold sequencing errors
How it was run: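 In a synthetic yeast display library (Saccharomyces cerevisiae BJ5465), nanobody expression was induced with galactose for 36–48 hours. FACS gates were set low and high (top ~1%) using anti-HA fluorescence for expression and streptavidin fluorescence for binding of the Sf9 membrane reagent. Each polyreactivity label is drawn from the gate of origin.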

## QVQLVESGGGLVQAGGSLRLSCAASGGTFYRYAMGWYRQAPGKEREFVASITQRGGRTYYADSVKGRFTISRDNAKNTVYLQMNSLKPEDTAVYYCAVEYYNYPNSRRYDYWGQGTQVTVSS
  polyreactivity (PSR sort gate): high polyreactivity

## QVQLVESGGGLVQAGGSLRLSCAASGGTFYVYAMGWYRQAPGKERELVAAISTSGGSTYYADSVKGRFTISRDNAKNTVYLQMNSLKPEDTAVYYCAARRVSFSGHPRYGYWGQGTQVTVSS
  polyreactivity (PSR sort gate): high polyreactivity

## QVQLVESGGGLVQAGGSLRLSCAASGGTFYYNAMGWYRQAPGKERELVAAITSGDRTYYADSVKGRFTISRDIAKNTVYLQMNSLKPEDTAVSYCARAGKTRAGYDYWGQGTQVTVSS
  polyreactivity (PSR sort gate): high polyreactivity

## QVQLVESGGGLVQAGGSLRLSCAASGGTITRYAMGWYRQAPGKERELVAAISSSGGSTYYADSVKGRFTISRDNAKNTVYLQMNSLKPEDTAVYYCAAEGYTLWYWLEFEYWGQGTQVTVSS
  polyreactivity (PSR sort gate): high polyreactivity

## QVQLVESGGGLVQAGGSLRLSCAASGGTITSYAMGWYRQAPGKERELVAAITRSGGSTYYADSVKGRFTISRDNAKNTVYLQMNSLKPEDTAVYYCAARYSTYPWYNSWGQGTQVTVSS
  polyreactivity (PSR sort gate): high polyreactivity

## QVQLVESGGGLVQAGGSLRLSCAASGGTIVWNAMGWYRQAPGKERELVAAITWSGGSTYYADSVKGRFTISRDNAKNTVYLPMNSLQPEATAVYYCNADRFGRAHVYPEFDYWGQGTQVTVSS
  polyreactivity (PSR sort gate): low polyreactivity

## QVQLVESGGGLVQAGGSLRLSCAASGGTLATYAMGWYRQAPGKERELVARIRIGGSTNYADSVKGRFTISRDNAKNTVYLQMNSLKPEDTAVYYCNKYSVLSRQRYSHPVNYDSWGQGTQVTVSS
  polyreactivity (PSR sort gate): high polyreactivity

## QVQLVESGGGLVQAGGSLRLSCAASGGTLFTNAMGWYRQAPGKERELVAAISWRGGRTYYADSVKGRFTISRDNAKNTVYLQMNSLKPEDSAVYYCAADVSAVQGYYYWGQGTQVTVSS
  polyreactivity (PSR sort gate): low polyreactivity

## QVQLVESGGGLVQAGGSLRLSCAASGGTLRRYAMGWYRQAPGKERELVAAIIDRSGSTSYADSVKGRFTISRDNAKNTVYLQMNSLKPEDTAVYYCAARTYRTRYYYWGQGTQVTVSS
  polyreactivity (PSR sort gate): high polyreactivity

## QVQLVESGGGLVQAGGSLRLSCAASGGTLRYYVMGWYRQAPGKERELVAAISWSGDSTYYADSVKGRFTISRDNAKNTVYLEMNSLKPDDTAVYYCAATYYVTYYYGQANHGYDYWGPGTQVTVSS
  polyreactivity (PSR sort gate): low polyreactivity

## QVQLVESGGGLVQAGGSLRLSCAASGGTLWGYGMGWYRQAPGKEREFVAAITWSGGNTNYADSVKGRFTISRDNAMNTVYLLMNSLKPEDTAVYYCNARVYYKRKYDYWGQGTQVTVSS
  polyreactivity (PSR sort gate): high polyreactivity

## QVQLVESGGGLVQAGGSLRLSCAASGGTSQGNAMGWYRQAPGKERELVAAISWSGGTTYYADSVKGRFTISRDNAKNTVYLQMNSLKPEDTAVYYCAAYRYAGRYVPYGDYDYWGQGTQVTVSS
  polyreactivity (PSR sort gate): low polyreactivity

## QVQLVESGGGLVQAGGSLRLSCAASGGTVWYYTMGWYRQAPGKERELVARITGGSRTNYADSVNGRFTISRDNAKNTVYLQMNSLKPEDTAVYYCARTSWSGVSYDYWGQGTQVTVSS
  polyreactivity (PSR sort gate): high polyreactivity

## QVQLVESGGGLVQAGGSLRLSCAASGGTYELYVMGWYRQAPGKERELVAAISVNGDDTYYADSVKGRITISRDNAKNTVYLQMNSLKPEDTAVYYCAAEVLGSYYLTGYDYWGQGTQVTVSS
  polyreactivity (PSR sort gate): high polyreactivity

## QVQLVESGGGLVQAGGSLRLSCAASGHFFFYYPLGWYRQAPGKERELVARFTLSGTSTYYADSVKGRFTISRDNAKNSVYLQMNSLKPEDTAVYYCAAPYFTYGQDDDDYWRQGTQVTVSS
  polyreactivity (PSR sort gate): low polyreactivity

## QVQLVESGGGLVQAGGSLRLSCAASGHFFFYYTMGWYRPAPGKERELVAGITIGGSTNYADSVKGRFTISRDNAKHTVYVQMNSLKPEDTPVYYCNVVKYVYIYSYWEYYYCGQGTQVTVSS
  polyreactivity (PSR sort gate): low polyreactivity

## QVQLVESGGGLVQAGGSLRLSCAASGHIFIRYAMGWYRQAPGKDRELVAASTGSGGSTYYADSVKGRFTISRDYAKNTVYLQMNSLKPEDTAVYYCAARTSKKYVPYDYWGQGTQVTVSS
  polyreactivity (PSR sort gate): high polyreactivity

## QVQLVESGGGLVQAGGSLRLSCAASGHIFVNKAMGWYRQAPGKEREFVAAITSNGARTYYADSVKGRFTISRDNAKNTVYLQMNSLKPEDTAVYYCAKRFARRSQRYDYWGQGTQVTVSS
  polyreactivity (PSR sort gate): high polyreactivity

## QVQLVESGGGLVQAGGSLRLSCAASGHTFAYNAMGWYRQAPGKEREFVAAITWSTDNTYYADSVKGRFTISRDYAKYTVYLQMNSLKPEDTAVYYCAVDVYFYYRHYGYWGQGTQVTVSS
  polyreactivity (PSR sort gate): low polyreactivity

## QVQLVESGGGLVQAGGSLRLSCAASGHTFRGYDMGWYRQATGKQRELFASISSSGGSTYYADSVKGRFTISRDNAKNTVYLQMNSLKPEDTAVYYCATRDGVVDTEPDQSYAVELDYWGQGTQVTVSS
  polyreactivity (PSR sort gate): low polyreactivity

## QVQLVESGGGLVQAGGSLRLSCAASGHTFTINAMGWYRQAPGKERELVAAITFSGGRTYYADSVKGRFTISRDNAKNTVYLQMNSLKPEDTAVYYCAADNPGGSIYDYWGQGTQVTVSS
  polyreactivity (PSR sort gate): low polyreactivity

## QVQLVESGGGLVQAGGSLRLSCAASGHTLAVNAKGWYRQATGKERELVAAITRSGVTTSYADSVKGRFTISRDNAKNTVYLQMNSLKPEDTAVYYCAAQLDASYLTGGWRRHYNYWGQGTQVTVSS
  polyreactivity (PSR sort gate): low polyreactivity

## QVQLVESGGGLVQAGGSLRLSCAASGHTLGSYAMGWYRQAPGKERELVAAISSRGGTYYADSVKGRFTISRDNAKNTGYFLMNSLKPDDTAVYYWDAVSGSSKMYYWGQGTQVTVSS
  polyreactivity (PSR sort gate): high polyreactivity

## QVQLVESGGGLVQAGGSLRLSCAASGIFDPNAMGWYRQAPGKERELVAAITSGGSTNYADSVKGRFTISRDNAKNTVYLQMNSLKPEDTAVYYCNADSYDEIKYGYWGQGTQVTVSS
  polyreactivity (PSR sort gate): low polyreactivity

## QVQLVESGGGLVQAGGSLRLSCAASGIFDYYGMGWYRQAPGKERELVAAITWNGGSTYYADSVKGRLTISRDNAKNTVYVQMNSLKPEDTAVYYCATTDWYHSPGYDYRGQGTQVTVSS
  polyreactivity (PSR sort gate): low polyreactivity

## QVQLVESGGGLVQAGGSLRLSCAASGIFGRNAMGWYRQAPGKERELVAAITGSGGRTYYADSVKGRFTISRDNAKNTVYLQMNSLKPEDTAVSYCAASIPSTHGYAYDYWGQGNQVTVSS
  polyreactivity (PSR sort gate): high polyreactivity

## QVQLVESGGGLVQAGGSLRLSCAASGIFLGYALGWYRQAPGKERELVAAITSGDSTYYADSVKGRFTISRDNAKNTVYLQMNSLKPEDTAVYYCAKTRYSWPRVWYNYWGQGTQVTVSS
  polyreactivity (PSR sort gate): low polyreactivity

## QVQLVESGGGLVQAGGSLRLSCAASGIFRGYAMGWYRQAPGKERELVAAISWGGGSTYYADSVKGRFTISRDNAKNTVYLQMNSLKPEDTAVYYCIAADFGWDYAYYYWGQGTQVTVSS
  polyreactivity (PSR sort gate): low polyreactivity

## QVQLVESGGGLVQAGGSLRLSCAASGIFRQNAMGWYRQAPGKERELVAGISQSGGSTYYADSVKGRFTISRDNAKNTVYLQMNSLKPEDTSVYYCALVSIWGYDYWGQGTQVTVSS
  polyreactivity (PSR sort gate): low polyreactivity

## QVQLVESGGGLVQAGGSLRLSCAASGIFRRYAMGWYRQAPGKERELVAAISSSGGSTDYADSVKGRFTISRDNAKNTVYLQMNSLKPEDTAVYYCNAYDQHGWWCYAYDYWGQGTQVTVSS
  polyreactivity (PSR sort gate): high polyreactivity

## QVQLVESGGGLVQAGGSLRLSCAASGIFRRYAMGWYRQAPGKERELVAAISSSGGSTDYADSVKGRFTISRDNAKNTVYLQMNSLKPEDTAVYYCNAYDQHGWWSYAYDYWGQGTQVTVSS
  polyreactivity (PSR sort gate): high polyreactivity

## QVQLVESGGGLVQAGGSLRLSCAASGIFVRYAMGWYRQAPGKEREMVAAISFSDDSTYYADSVKGRFTISRDNAKNTVYLQMNSLKPEDTAVYYCNARLERTPCLYLYGSWGQVTQVTVSS
  polyreactivity (PSR sort gate): low polyreactivity

## QVQLVESGGGLVQAGGSLRLSCAASGIFVTYAMGWYRQAPGTERELVAAIRYSGDSTYYADSVKGRFTISRDNAKNTVYLQMNSLKPEETAVYYCAATKGWSRYEYWGQGTQVTVSS
  polyreactivity (PSR sort gate): low polyreactivity

## QVQLVESGGGLVQAGGSLRLSCAASGIFYFYAMGWYRQAPGKERELVAAITSSGGNTTYADSVKGRFTISRDNAKNTVYLQMNSLKPEDTAVYYCNAEAYSYGFDYWGQRTQVTVSS
  polyreactivity (PSR sort gate): low polyreactivity

## QVQLVESGGGLVQAGGSLRLSCAASGIICPENAMGWYRQAPGKERELVAAISKSGGRTYYADSVKGRFTISRDNAKNTVYLQMNSLKPEDTAVYYCAKVPYAYSRDRSAEDSWGQATQVTVSS
  polyreactivity (PSR sort gate): high polyreactivity

## QVQLVESGGGLVQAGGSLRLSCAASGIIFAFYAMGWYRQAPGKERELVATISKSGGRTYYADSVKGRFTISRDNAKNTVYLQMNSLNPEDTAVYYCAARIQYAFGADYYWGQGTQVTVSS
  polyreactivity (PSR sort gate): low polyreactivity

## QVQLVESGGGLVQAGGSLRLSCAASGIIFAGNTMGWYIQAPWKERELVAAITWSGGSTYYADSVKGRFTISRDNAKNTVYLQMNSQKPEDTAVYYCAAYYGGYGWDDKYDYWGQGTQVTVSS
  polyreactivity (PSR sort gate): low polyreactivity

## QVQLVESGGGLVQAGGSLRLSCAASGIIFAQYTMGWYRQAPGKERELVAAINRNGGSTYYADSVKGRFTISRDNAKNTVYLQMNSLKPEDTAVYYCNADALGFRYDYWGQGTQVTLSS
  polyreactivity (PSR sort gate): low polyreactivity

## QVQLVESGGGLVQAGGSLRLSCAASGIIFARYAMGWYRQAPGKERELVAVISGSGGSTYYADSVKGRFTISRDNAKNTVYLQMNSLKPEDTAVYYCNAEFESGHDLDWYDYWGQGTQVTVSS
  polyreactivity (PSR sort gate): low polyreactivity

## QVQLVESGGGLVQAGGSLRLSCAASGIIFASNAMGWYIQAPGKERELVATINWTDSTTYYADSVKGRFTISRDNAKNNVYLLMNSLKPEDTAGYYCNAVPHWFYRYGRYDYWGQGTQVTVSS
  polyreactivity (PSR sort gate): low polyreactivity

## QVQLVESGGGLVQAGGSLRLSCAASGIIFASNGMGWYRQAPGKERELLAAISSGGSTNYADSVKGRFTISRDNAKNTVYLQMNSLKPEDTAVYYCSTSGPQYYSRNFDYWGLGTQVTVSS
  polyreactivity (PSR sort gate): low polyreactivity

## QVQLVESGGGLVQAGGSLRLSCAASGIIFASYAMGWYRQAPGKERELVAAITWDGDSTYYADSVKGRFSISRDNAKNTVYLQRNSLKPEDTAVYYCAADGVYVGFYGYDYDYWGQGTQVTVSS
  polyreactivity (PSR sort gate): low polyreactivity

## QVQLVESGGGLVQAGGSLRLSCAASGIIFAVYTMGWYRQARGKERELVAALSSGGSTYYADSVQGRFTISRDNAKNTVYLQMNSLKPEDTAVYYCNAQYFWLWLTYDFDYWGQGTQVTVSS
  polyreactivity (PSR sort gate): high polyreactivity
